Assay results: the supplement of paper PMC9732359
± gives the uncertainty stated by the source.

Assay: protein stability index of a GFP-peptide fusion (yeast GPS) (PSI 1-4); higher = more stable; sorted into four equal gates, so the index is relative within each strain
Outline: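 The protein stability index combines read frequencies across sorting gates, each weighted by its gate number and then summed. To obtain those frequencies, a pooled yeast library of GFP fusions to tiled 17-residue yeast protein peptides, on a plasmid also expressing Cherry, was grown to mid-log phase in leucine-free medium. The cells were sorted into four equal gates by GFP/Cherry ratio before plasmid amplification by PCR and Illumina sequencing.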

| Sequence | protein stability index (doa10∆) | protein stability index (pdr5∆) | protein stability index (san1∆) | protein stability index (ubr1∆) |
| --- | --- | --- | --- | --- |
| PGGASGLGVLTHRNKDG [FAS1] | 3.35 ± 0.067 | 2.74 ± 0.081 | 3.24 ± 0.076 | 3.44 ± 0.069 |
| VGVIGPLHSGKTSLMDL [SNU114] | 2.97 ± 0.11 | 2.68 ± 0.11 | 3.29 ± 0.19 | 3.13 ± 0.07 |
| SSLPPGEILLPDIADIP [SNF5] | 3.12 ± 0.074 | 3.25 ± 0.063 | 3.19 ± 0.076 | 3.25 ± 0.048 |
| ETLGLKYLGLKPGSIDA [FAS1] | 3.24 ± 0.13 | 3.24 ± 0.097 | 3.03 ± 0.076 | 3.22 ± 0.095 |
| TTTSFTTSEATANDRQI [RPN4] | 2.95 ± 0.051 | 3.13 ± 0.055 | 2.55 ± 0.063 | 3.25 ± 0.042 |
| LKIFLYLESLFAKQVDV [IRR1] | 2.51 ± 0.093 | 2.19 ± 0.073 | 2.33 ± 0.1 | 2.53 ± 0.049 |
| ARIHAQNYLKTYNEDIP [PRE9] | 2.28 ± 0.051 | 1.99 ± 0.079 | 2.75 ± 0.085 | 2.05 ± 0.061 |
| AKNSIIDSSNLPLQAQQ [SWI1] | 2.73 ± 0.069 | 2.94 ± 0.071 | 2.74 ± 0.099 | 2.78 ± 0.042 |
| RTPYLTSLKKIKDEIDD [SWI1] | 2.86 ± 0.16 | 2.66 ± 0.091 | 2.21 ± 0.12 | 2.62 ± 0.079 |
| DETYKGVEEVEGEYELT [RPL5] | 3.21 ± 0.16 | 3.43 ± 0.15 | 3.16 ± 0.23 | 2.82 ± 0.27 |
| KTLKLARAPKYASKAVP [RPL25] | 2.29 ± 0.06 | 2.31 ± 0.056 | 2.53 ± 0.067 | 2.19 ± 0.035 |
| GNLYSKVMNNSFKLCTL [YML103C/NUP188] | 3.21 ± 0.21 | 2.8 ± 0.15 | 2.87 ± 0.14 | 3.07 ± 0.22 |
| RKHPGGRGMAGGQHHHR [RPL28] | 2.94 ± 0.14 | 2.6 ± 0.26 | 3.03 ± 0.1 | 3.18 ± 0.16 |
| LRDRNFSATGNFGFGID [RPL11A] | 3.23 ± 0.069 | 3.28 ± 0.072 | 2.93 ± 0.1 | 3.25 ± 0.053 |
| GKSTADVKSSDSLKLNS [YJL041W/NSP1] | 3.23 ± 0.14 | 3.35 ± 0.12 | 2.96 ± 0.17 | 3.32 ± 0.14 |
| RSQISEKDAKINKLMEK [SIR4] | 3.13 ± 0.087 | 3.12 ± 0.11 | 3.17 ± 0.062 | 2.27 ± 0.047 |
| ADPVALYLGLKRGEVVK [RPB5] | 1.67 ± 0.24 | 1.6 ± 0.15 | 1.32 ± 0.14 | 1.37 ± 0.13 |
| VYRFVTENAIEEKVIER [ISW2] | 2.42 ± 0.11 | 2.46 ± 0.14 | 2.5 ± 0.25 | 2.7 ± 0.063 |
| TTPYMTKYERARILGTR [RPO26] | 2.97 ± 0.14 | 3.3 ± 0.091 | 2.56 ± 0.18 | 3.45 ± 0.09 |
| LKLLKENIIQMEMIENR [FAS1] | 1.87 ± 0.065 | 2.27 ± 0.094 | 1.32 ± 0.12 | 1.93 ± 0.074 |
| ADWDPESMAYTAFQTQR [YML031W/NDC1] | 2.89 ± 0.14 | 3.34 ± 0.11 | 3.24 ± 0.17 | 3.36 ± 0.12 |
| EKPLVVPVKLEEIKTVD [RRP6] | 2.52 ± 0.13 | 2.42 ± 0.07 | 2.76 ± 0.16 | 2.38 ± 0.068 |
| KLLLLNTSAIQETASPL [YIL149C/MLP2] | 2.33 ± 0.13 | 2.42 ± 0.21 |  | 2.56 ± 0.088 |
| KDERGEGEAKQKRNAHG [ITC1] | 3.21 ± 0.18 | 3.69 ± 0.23 | 3.46 ± 0.098 | 3.34 ± 0.14 |
| MSLKDKLLIQIDELSNG [SMC1] | 2.27 ± 0.084 | 2.34 ± 0.11 | 3.08 ± 0.11 | 2.52 ± 0.1 |
| FTTNKSKDVSRLLSALG [SRP21] | 3.03 ± 0.2 | 2.41 ± 0.28 |  | 2.8 ± 0.081 |

| Sequence | protein stability index (doa10∆) | protein stability index (pdr5∆) | protein stability index (san1∆) | protein stability index (ubr1∆) |
| --- | --- | --- | --- | --- |
| QLYESGNPVNDANLLGA [COR1] | 2.53 ± 0.059 | 2.65 ± 0.057 | 2.42 ± 0.069 | 2.81 ± 0.044 |
| KLTRELEKKFPDRHVIF [RPS7B] | 2.75 ± 0.058 | 2.94 ± 0.049 | 2.99 ± 0.04 | 3.14 ± 0.033 |
| QQTEKLNPQVADINKNF [RPN2] | 1.91 ± 0.066 | 2.42 ± 0.058 | 2.44 ± 0.07 | 2.49 ± 0.055 |
| EIPSEDQNEFLLERTRE [FAS2] | 3.33 ± 0.094 | 3.3 ± 0.12 | 3.35 ± 0.081 | 3.22 ± 0.079 |
| TTQDQCKLTLDINVELF [RPB8] | 2.97 ± 0.054 | 2.96 ± 0.07 | 2.93 ± 0.037 | 3.3 ± 0.053 |
| QQQVLNKLRQQAIAKNN [SNF5] | 1.13 ± 0.066 | 1.2 ± 0.072 | 1.11 ± 0.13 | 1.05 ± 0.052 |
| SRSSSKNVNIEDITEPK [ESC2] | 2.92 ± 0.086 | 3 ± 0.082 | 2.67 ± 0.086 | 2.98 ± 0.15 |
| QQQQQQHIYPSSTPGVA [GAL11] | 2.728 ± 0.022 | 2.78 ± 0.029 | 2.664 ± 0.023 | 2.664 ± 0.025 |
| VQGELKPTVILKLLKEN [FAS1] | 2.36 ± 0.17 | 2.53 ± 0.14 | 2.75 ± 0.19 | 2.99 ± 0.28 |
| VNGSTTAGVGSTPNFGG [SIN4] | 3.58 ± 0.079 | 3.33 ± 0.095 | 3.4 ± 0.078 | 3.25 ± 0.077 |
| RLFNNVKIHSQESLLSR [SRP72] | 2.61 ± 0.076 | 2 ± 0.06 | 2.44 ± 0.085 | 2.18 ± 0.044 |
| MDPQTLITKANKVSYYG [RTT102] | 1.85 ± 0.047 | 1.73 ± 0.042 | 1.71 ± 0.12 | 1.87 ± 0.052 |
| AIEPETFTQLVSSSLYE [PUP3] | 2.35 ± 0.063 | 2.89 ± 0.068 | 2.75 ± 0.063 | 2.54 ± 0.043 |
| KEPPRDRKKDKNVKHSG [RPL12A] | 3.29 ± 0.09 | 3.12 ± 0.084 | 3.22 ± 0.067 | 3.17 ± 0.061 |
| TPLTFALPRGARTATVS [RPL14A] | 1.55 ± 0.063 | 1.5 ± 0.061 | 1.4 ± 0.1 | 1.57 ± 0.049 |
| ADLQGSEDHSFRKIKLR [RPS1A] | 3.17 ± 0.051 | 3.13 ± 0.061 | 3.06 ± 0.047 | 3.15 ± 0.048 |
| FRAVGEGNAQLVAIFGG [FAS1] | 1.17 ± 0.043 | 1.55 ± 0.063 | 1.51 ± 0.1 | 1.36 ± 0.055 |
| EHVILGNGELYMDCLLY [SNU114] | 2.31 ± 0.053 | 2.73 ± 0.073 | 2.76 ± 0.086 | 2.67 ± 0.063 |
| SPEQIDASPDSLEALID [YCS4] | 2.92 ± 0.054 | 2.88 ± 0.049 | 2.94 ± 0.044 | 3.05 ± 0.041 |
| TSQKMTSTVNRLNTVTR [MCD1] | 3.16 ± 0.094 | 2.94 ± 0.18 | 3.57 ± 0.18 | 3.09 ± 0.098 |
| GISNGSESKDSDKPSLP [YLR335W/NUP2] | 3.29 ± 0.13 | 3.19 ± 0.12 |  | 2.79 ± 0.13 |
| ANVQRLKEYQSKIIVFP [RPL13A] | 2.93 ± 0.076 | 3.03 ± 0.093 | 3.05 ± 0.092 | 3 ± 0.067 |
| PDSCNMQEKAAHIAKNL [YCS4] | 2.15 ± 0.15 | 1.55 ± 0.2 |  | 1.47 ± 0.093 |
| SQQLLEILVTELTAQGY [RPN2] | 1.65 ± 0.077 | 2.19 ± 0.079 | 1.93 ± 0.13 | 1.77 ± 0.066 |
| HQSLGPDGLGEVGMKVQ [RET1] | 2.7 ± 0.16 |  |  |  |
| KKIRFLQLIIFLRTQFL [RGR1] | 1.53 ± 0.057 | 1.27 ± 0.041 | 1.19 ± 0.15 | 1.21 ± 0.073 |
